# Assay results as given in patent US7413870B2, “SAK: modulation of cellular proliferation for treatment of cancer” (Rigel Pharmaceuticals, Incorporated, priority 2001, dated 2008).
# Read-outs that look alike come from different tables or passages of the source.
# B1: wild type mouse SAK: wild type mouse SAK overexpressed in CHO cells, from cited U.S. patents (protein, UniProt Q64702 1-925, looked up)
# Serine/threonine-protein …: MAACIGERIEDFKVGNLLGKGSFAGVYRAESIHTGLEVAIKMIDKKAMYKAGMVQRVQNEVKIHCQLKHPSVLELYNYFEDNNYVYLVLEMCHNGEMNRYLKNRMKPFSEREARHFMHQIITGMLYLHSHGILHRDLTLSNILLTRNMNIKIADFGLATQLNMPHEKHYTLCGTPNYISPEIATRSAHGLESDIWSLGCMFYTLLIGRPPFDTDTVKNTLNKVVLADYEMPAFLSREAQDLIHQLLRRNPADRLSLSSVLDHPFMSRNPSPKSKDVGTVEDSMDSGHATLSTTITASSGTSLSGSLLDRRLLVGQPLPNKITVFQKNKNSSDFSSGDGSNFCTQWGNPEQEANSRGRGRVIEDAEERPHSRYLRRAHSSDRASPSNQSRAKTYSVERCHSVEMLSKPRRSLDENQHSSNHHCLGKTPFPFADQTPQMEMVQQWFGNLQMNAHLGETNEHHTVSPNRDFQDYPDLQDTLRNAWTDTRASKNADTSANVHAVKQLSAMKYMSAHHHKPEVMPQEPGLHPHSEQSKNRSMESTLGYQKPTLRSITSPLIAHRLKPIRQKTKKAVVSILDSEEVCVELLRECASEGYVKEVLQISSDGTMITVYYPNDGRGFPLADRPPLPTDNISRYSFDNLPEKYWRKYQYASRFIQLVRSKTPKITYFTRYAKCILMENSPGADFEVWFYDGAKIHKTENLIHIIEKTGISYNLKNENEVTSLKEEVKVYMDHANEGHRICLSLESVISEEEKRSRGSSFFPIIVGRKPGNTSSPKALSAPPVDPSCCKGEQASASRLSVNSAAFPTQSPGLSPSTVTVEGLGHTATATGTGVSSSLPKSAQLLKSVFVKNVGWATQLTSGAVWVQFNDGSQLVVQAGVSSISYTSPDGQTTRYGENEKLPEYIKQKLQCLSSILLMFSNPTPNFQ
# B2: SAK wild type: wild type human SAK serine/threonine kinase (SEQ ID NO:2), overexpressed in cells (protein, UniProt O00444 1-970, looked up)
# Serine/threonine-protein …: MATCIGEKIEDFKVGNLLGKGSFAGVYRAESIHTGLEVAIKMIDKKAMYKAGMVQRVQNEVKIHCQLKHPSILELYNYFEDSNYVYLVLEMCHNGEMNRYLKNRVKPFSENEARHFMHQIITGMLYLHSHGILHRDLTLSNLLLTRNMNIKIADFGLATQLKMPHEKHYTLCGTPNYISPEIATRSAHGLESDVWSLGCMFYTLLIGRPPFDTDTVKNTLNKVVLADYEMPSFLSIEAKDLIHQLLRRNPADRLSLSSVLDHPFMSRNSSTKSKDLGTVEDSIDSGHATISTAITASSSTSISGSLFDKRRLLIGQPLPNKMTVFPKNKSSTDFSSSGDGNSFYTQWGNQETSNSGRGRVIQDAEERPHSRYLRRAYSSDRSGTSNSQSQAKTYTMERCHSAEMLSVSKRSGGGENEERYSPTDNNANIFNFFKEKTSSSSGSFERPDNNQALSNHLCPGKTPFPFADPTPQTETVQQWFGNLQINAHLRKTTEYDSISPNRDFQGHPDLQKDTSKNAWTDTKVKKNSDASDNAHSVKQQNTMKYMTALHSKPEIIQQECVFGSDPLSEQSKTRGMEPPWGYQNRTLRSITSPLVAHRLKPIRQKTKKAVVSILDSEEVCVELVKEYASQEYVKEVLQISSDGNTITIYYPNGGRGFPLADRPPSPTDNISRYSFDNLPEKYWRKYQYASRFVQLVRSKSPKITYFTRYAKCILMENSPGADFEVWFYDGVKIHKTEDFIQVIEKTGKSYTLKSESEVNSLKEEIKMYMDHANEGHRICLALESIISEEERKTRSAPFFPIIIGRKPGSTSSPKALSPPPSVDSNYPTRERASFNRMVMHSAASPTQAPILNPSMVTNEGLGLTTTASGTDISSNSLKDCLPKSAQLLKSVFVKNVGWATQLTSGAVWVQFNDGSQLVVQAGVSSISYTSPNGQTTRYGENEKLPDYIKQKLQCLSSILLMFSNPTPNFH
# B3: SAK K41M mutant: mutant SAK (K41M) serine/threonine kinase, overexpressed in cells in dominant negative studies (protein, UniProt O00444 1-970, looked up, variant K41M)
# Serine/threonine-protein …: MATCIGEKIEDFKVGNLLGKGSFAGVYRAESIHTGLEVAIMMIDKKAMYKAGMVQRVQNEVKIHCQLKHPSILELYNYFEDSNYVYLVLEMCHNGEMNRYLKNRVKPFSENEARHFMHQIITGMLYLHSHGILHRDLTLSNLLLTRNMNIKIADFGLATQLKMPHEKHYTLCGTPNYISPEIATRSAHGLESDVWSLGCMFYTLLIGRPPFDTDTVKNTLNKVVLADYEMPSFLSIEAKDLIHQLLRRNPADRLSLSSVLDHPFMSRNSSTKSKDLGTVEDSIDSGHATISTAITASSSTSISGSLFDKRRLLIGQPLPNKMTVFPKNKSSTDFSSSGDGNSFYTQWGNQETSNSGRGRVIQDAEERPHSRYLRRAYSSDRSGTSNSQSQAKTYTMERCHSAEMLSVSKRSGGGENEERYSPTDNNANIFNFFKEKTSSSSGSFERPDNNQALSNHLCPGKTPFPFADPTPQTETVQQWFGNLQINAHLRKTTEYDSISPNRDFQGHPDLQKDTSKNAWTDTKVKKNSDASDNAHSVKQQNTMKYMTALHSKPEIIQQECVFGSDPLSEQSKTRGMEPPWGYQNRTLRSITSPLVAHRLKPIRQKTKKAVVSILDSEEVCVELVKEYASQEYVKEVLQISSDGNTITIYYPNGGRGFPLADRPPSPTDNISRYSFDNLPEKYWRKYQYASRFVQLVRSKSPKITYFTRYAKCILMENSPGADFEVWFYDGVKIHKTEDFIQVIEKTGKSYTLKSESEVNSLKEEIKMYMDHANEGHRICLALESIISEEERKTRSAPFFPIIIGRKPGSTSSPKALSPPPSVDSNYPTRERASFNRMVMHSAASPTQAPILNPSMVTNEGLGLTTTASGTDISSNSLKDCLPKSAQLLKSVFVKNVGWATQLTSGAVWVQFNDGSQLVVQAGVSSISYTSPNGQTTRYGENEKLPDYIKQKLQCLSSILLMFSNPTPNFH
# Tests used:
# CHO cells = conditions: overexpression in CHO cells; cited from earlier work
# normal cells = test: antiproliferative effect of SAK wild type/mutants in normal cells (GFP positivity, cell tracker); type: cell-based
# H1299 cells = test: antiproliferative effect of SAK mutant in H1299 cells; type: cell-based
Molecule,antiproliferative effect (CHO cells),antiproliferative activity (normal cells),antiproliferative effect (normal cells; GFP positivity studies),antiproliferative activity (normal cells; listed as wild type SAK),antiproliferative effect (H1299 cells)
B1,antiproliferative,–,–,–,–
B2,–,do not have significant antiproliferative activity,no antiproliferative effect,neither wild type nor mutant SAK is antiproliferative,–
B3,–,does not have strong antiproliferative effects,–,–,weak antiproliferative effect
